“Also recorded” adds a separate entry of the source.

One test has as its system SphK1. Put plainly: SphK1 transcripts qRT-PCR in RAW 264.7 macrophages. The format is cell-based, mouse. As to the method:
(§1) RAW 264.7 (ATCC) mouse macrophages and Human Embryonic Kidney (HEK) 293T cells were cultured in DMEM media with 10% fetal bovine serum […] and glutamine HEPES buffer and beta-mercaptoethanol were added to the growth medium used for RAW 264.7 macrophages. […]
(§2) Total RNA was extracted with TriZol using standard RNA extraction protocol and reverse transcribed with SuperScript III Reverse Transcriptase (Thermo Fischer Scientific). SphK1, Tnf, Il6, EGR1, Gapdh, Hprt1 transcripts were quantified using PrimePCR SYBR Green assays from BioRad. […]
(§3) Total RNA was extracted with TriZol using standard RNA extraction protocol and reverse transcribed with SuperScript III Reverse Transcriptase (Thermo Fisher Scientific). SPHK1, Tnf, Il6, EGR1, Gapdh, Hprt1 transcripts were quantified using PrimePCR SYBR Green assays from BioRad.
On the technique in general: Real-time PCR tracks product formation cycle by cycle.

The next test deals with pERK1/2. In words: pERK1/2 western blot time course in RAW 264.7 macrophages. Type of test: cell-based, mouse. As to the method:
(§4) RAW 264.7 (ATCC) mouse macrophages and Human Embryonic Kidney (HEK) 293T cells were cultured in DMEM media with 10% fetal bovine serum […] and glutamine HEPES buffer and beta-mercaptoethanol were added to the growth medium used for RAW 264.7 macrophages. Primary human pulmonary artery smooth muscle cells (hPASMC) purchased from Lonza (Walkersville, Md.) were cultured in complete growth medium containing smooth muscle growth media-2 (SmGM-2) with 10% FBS and growth factors provided as a kit by the supplier (Lonza, (Walkersville, Md.). THP-1 human monocyte cells were cultured in RPMI 1640 with 10% FBS and glutamine Cells were cultured in a humidified atmosphere with 5% CO2 at 370 C. For all studies passages 5-14 were used for RAW 264.7 and passages 5-10 were used for hPASMCs. For treatment studies, subconfluent cells plated in multi-well plates were serum starved and if required, pretreated for with inhibitors before stimulating with 2 μg/mL recombinant EMAP II.
After appropriate treatments, protein lysates were prepared by using RIPA buffer supplemented with phosphatase and protease inhibitors (Thermo Fischer Scientific). Alpha-tubulin was used as a loading control. For nuclear and cytoplasmic fractionation, NE-PER kit from Thermo Fischer Scientific was used. Western blots were performed according to standard methods and quantified using densitometry using Image Studio Lite software from LI-COR Biosciences.
(§5) RAW 264.7 (ATCC) mouse macrophages and HEK-293T (ATCC) cells were cultured in DMEM media with 10% (v/v) fetal bovine serum (FBS) and 2 mM glutamine HEPES buffer and beta-mercaptoethanol were added to the growth medium used for RAW 264.7 macrophages. […]
(§6) After appropriate treatments, protein lysates were prepared by using RIPA buffer supplemented with phosphatase and protease inhibitors (Thermo Fisher Scientific). […] Western blots were performed according to standard methods and quantified using densitometry using Image Studio Lite software from LI-COR Biosciences.
For orientation: A western blot detects proteins with antibodies after separation by electrophoresis.

The subject of a further test is pSTAT3. Put plainly: pSTAT3 levels in SMCs (data not shown). Type of test: cell-based, human.
Test [1] has as its system S1P. In words: S1P, sphingosine and ceramides by HPLC/MS/MS in hPASMC. The format is cell-based, human. As to the method: as §4
Collected cells were rinsed with PBS, pelleted and frozen at minus 80° Celsius. Sphingolipids extraction and analysis is carried out at the Medical University of South Carolina (MUSC) core facility using eight-point calibration curves generated for each target analyte by High Performance Liquid Chromatography-Tandem Mass Spectrometry (HPLC/MS/MS) system operating in positive multiple reaction-monitoring (MRM) mode engaging a gradient elution. Sphingolipids are normalized to inorganic phosphate levels determined from the Bligh & Dyer lipid extraction method. Biological samples were from different passage numbers and on different days.
as §5
Collected cells were rinsed with PBS, pelleted. […] Sphingolipids were normalized to inorganic phosphate levels in PASMC which was determined from the Bligh & Dyer lipid extraction method. […]

Test [2] concerns S1P. In words: Lung tissue S1P by HPLC/MS/MS in neonatal mice. The format is in vivo, mouse. The conditions noted are these: neonatal C57BL/6 mice; recombinant EMAP II subQ days of life 3-15; postnatal day 15 lungs. As to the method: Animal experimental procedure was performed in accordance with the guidelines issued by the University of Notre Dame/Indiana University Institutional Animal and Use Committee. Lung tissues were harvested from postnatal day 15 C57BL/6 mice (Jackson laboratories) that were injected with either EMAP II or PBS at Day 3. Total protein was extracted and quantified. 1 mg of total protein was subjected to S1P quantification by HPLC/MS/MS.
Collected cells were rinsed with PBS, pelleted. Cell pellets and 1 mg of protein tissue extracts were frozen at −80° C. Sphingolipids extraction and analysis was carried out at the Medical University of South Carolina (MUSC) core facility using eight-point calibration curves generated for each target analyte by High Performance Liquid Chromatography-Tandem Mass Spectrometry (HPLC/MS/MS) system operating in positive multiple reaction-monitoring (MRM) mode engaging a gradient elution. Sphingolipids were normalized to inorganic phosphate levels in PASMC which was determined from the Bligh & Dyer lipid extraction method. Biological samples were from different passages collected on different days.

Test [3] deals with Tnf. Put plainly: Tnf transcripts qRT-PCR in RAW 264.7 macrophages. The following applies: EMAP II time course. Type of test: cell-based, mouse. As to the method: as §1, §2, §3
Test [4] concerns TNF. Put plainly: TNF in SMCs (data not shown). The format is cell-based, human.
The test system of another test is Cyclin D1. In words: Cyclin D1 western blot in hPASMC. The following applies: SMCs; 48 hours of EMAP II stimulation. Type of test: cell-based, human. As to the method:
as §1
After appropriate treatments, protein lysates were prepared by using RIPA buffer supplemented with phosphatase and protease inhibitors (Thermo Fischer Scientific). […] Western blots were performed according to standard methods and quantified using densitometry using Image Studio Lite software from LI-COR Biosciences. […]
as §6

B1: EMAP II: 6x-His tagged recombinant EMAP II, cleaved C-terminal peptide of AIMP1 (SEQ ID NO: 2), pro-inflammatory cytokine (protein)
chain: IAGSADSKPIDVSRLDLRIGCIITARKHPDADSLYVEEVDVGEIAPRTVVSGLVNHVPLEQMQNRMVILLCNLKPAKMRGVLSQAMVMCASSPEKIEILAPPNGSVPGDRITFDAFPGEPDKELNPKKKIWEQIQPDLHTNDECVATYKGVPFEVKGKGVCRAQTMSNSGIK
On to B1, for which the “induction of SphK1 transcription compared to control” value with SphK1 (EMAP II treated macrophages) is given as “about 4 times”. For the same molecule, in the test on SphK1 (macrophages), the “time of peak SphK1 transcription after EMAP II stimulation” value turned out to be 3 h. Besides, in the test with pERK1/2, the “earliest time of pERK1/2 activation” value is on record as 5 minutes and the “time of pERK1/2 peak” value worked out at 1 hour. Also, the “ERK1/2 phosphorylation (pERK1/2 normalized to ERK1/2)” value in the test on pERK1/2 (24-hour time course) is recorded as “induced ERK1/2 phosphorylation; also recorded: bi-modal activation; also recorded: bimodal activation”. In the test on pSTAT3, the “pSTAT3 levels / STAT3 activation” value is reported as “does not impact; also recorded: no STAT3 activation”. Also, the “extracellular S1P compared to control” value in the test on S1P [1] (SMCs growth media, 1 hour of EMAP II) is “elevation; also recorded: elevated”. The “cellular sphingosine and ceramide levels” value in the test on S1P [1] (SMCs, EMAP II 0-24 hours) was “depreciation throughout the time; also recorded: decreasing levels over time”. Further, the “cellular S1P levels (HPLC/MS/MS)” value with S1P [1] (SMCs, EMAP II 0-24 hours, normalized against inorganic phosphates) was “bi-modal elevation”. Besides, in the test on S1P [2], the “whole lung S1P levels compared to control” value is recorded as “significantly increased; also recorded: significant increase”. In the test with Tnf [3], the Tnf transcription level entry is “increased”. Moreover, the TNF induction entry with TNF [4] is given as “absent”. Further, the “cyclin D1 expression” value with Cyclin D1 was “modulates cyclin D1; also recorded: marked increase”.

(Values after patent publication US20200397816A1, “METHODS TO TREAT INFLAMMATORY AND SMOOTH MUSCLE CELL PROLIFERATION DISORDERS” (THE TRUSTEES OF INDIANA UNIVERSITY, priority 2019, published 2020).)
